Kd data for one molecule are collected here from paper PMC10716038, “Talin and kindlin use integrin tail allostery and direct binding to activate integrins” (Nature Structural & Molecular Biology, 2023).

The target of this assay is T1, KIND2 Y13A (UniProt Q8CIB5 1-680, Y13A).
T1 construct: kindlin-2 (KIND2), recombinant, Y13A; source: E. coli Rosetta, purified (IMAC, SEC); not shown: His10-SUMO, N-terminal, cleaved
T1 sequence (looked up): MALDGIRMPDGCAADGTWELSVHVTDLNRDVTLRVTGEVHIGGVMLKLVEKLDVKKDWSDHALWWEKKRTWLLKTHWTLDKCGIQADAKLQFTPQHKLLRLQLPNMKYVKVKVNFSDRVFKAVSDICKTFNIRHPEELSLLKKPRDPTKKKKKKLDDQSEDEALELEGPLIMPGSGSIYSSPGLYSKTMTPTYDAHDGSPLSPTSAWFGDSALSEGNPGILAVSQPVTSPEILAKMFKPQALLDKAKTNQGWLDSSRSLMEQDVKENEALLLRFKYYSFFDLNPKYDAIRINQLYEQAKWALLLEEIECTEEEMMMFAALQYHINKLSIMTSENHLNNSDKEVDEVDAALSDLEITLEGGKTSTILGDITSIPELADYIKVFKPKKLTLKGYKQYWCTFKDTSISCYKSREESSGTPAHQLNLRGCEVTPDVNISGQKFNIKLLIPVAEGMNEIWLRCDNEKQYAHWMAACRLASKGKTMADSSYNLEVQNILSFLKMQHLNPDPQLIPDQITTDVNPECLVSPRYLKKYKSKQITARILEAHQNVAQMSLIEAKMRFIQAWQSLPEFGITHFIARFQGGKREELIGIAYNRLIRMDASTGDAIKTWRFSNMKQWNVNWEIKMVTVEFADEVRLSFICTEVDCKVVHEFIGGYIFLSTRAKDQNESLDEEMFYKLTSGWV
As to the kind of experiment: MST; unlabelled protein titrated to 50-200 nM ATTO 488-labelled β-CT peptide, no third protein; 20 mM Tris pH 7.5, 200 mM NaCl, 1 mM TCEP, 0.05% Tween-20; Kd of individual titrations (in S0002 mean and sd, n = 2). Conditions: both partners purified.

Several values for one entry are separate records, joined by “and”; a condition that tells them apart may be missing. Equal entries are not always repeated. No end group written: not given here.

B1: ATTO 488-labeled integrin β3 cytoplasmic tail (488–β3-CT) (peptide, UniProt O54890 741-787, looked up)
peptide: {ATTO 488}-KLLITIHDRKEFAKFEEERARAKWDTANNPLYKEATSTFTNITYRGT
notes: integrin β3 cytoplasmic tail (β3-CT); source: synthetic peptide (MPIB Core Facility)
Broadly, the Kd is the free concentration of one partner at which half of the binding sites on the other are occupied at equilibrium, for simple one-to-one binding. Higher therefore signals lower affinity. Turning to B1, the Kd was 9.85 µM and 9.2 µM and 9.18 µM and 7.89 µM.
